Our source for the protein production values is a protein production outcome set (Wang et al. 2014).

This data set can be described thus: label from the status in PepcDB records.
As to “MFALPQAGDRRGEIIKVLLSNGWDYMNGLLTLGKVGEPQIPTPEVLTKILVELGPFYIKLGQLLSTRPDLLPPRYINALTALQSNVPPLPWSAIEDLLQREFPQPLGETFQEIESEPIAAGSIGQIHRAVLQSGETVAIKVKRPGIDVIVEQDSLLIKDVAELLALTEFGQNYDIVKLADEFTQTVKAELNFDTEAAYTNNLRTNLAKTTWFDPNQLVIPKVYWELTNQKFLVLEWLDGVPILTADLTQPPSDKDIAEKKKEITTLLFRAFFQQLYVDGFFHADPHPGNIFYLADGRLALIDCGMVGRLDPRTRQLLTEMLLAIVDLDAKRCAQLTVELSESVGRVNFQRLEVDYERMLRKYYDLSLSEFNFSEVVYEFLRIARVNKLKVPACLGLYAKCLANLEGAG”, the protein production entry is given as “failed”.
The result for “MKEIVERVKTKTKIPVYERSVENVLSAVLASDDIWRIVDLSEEPLPLVVAILESLNELGYVTFEDGVKLTEKGEELVAEYGIGKRYDFTCPHCQGKTVDLQAFADLLEQFREIVKDRPEPLHEFDQAYVTPETTVARVILMHTRGDLENKDIFVLGDDDLTSIALMLSGLPKRIAVLDIDERLTKFIEKAANEIGYEDIEIFTFDLRKPLPDYALHKFDTFITDPPETLEAIRAFVGRGIATLKGPRCAGYFGITRRESSLDKWREIQKLLLNEFNVVITDIIRNFNEYVNWGYAEETRAWKLIPIKKLPEYNWYKSYMFRIETLEGSRGYEDEIPEEDIYNDEESSTT” reads “not failed”; that for “MNIFIAGLNYNMSEAELGELFAEYGEVVSVKIIMDRETGRSKGYGFVEMADDEAGDKAIAALNEVDMDGKTLSVSVARPREERPRRSYGNNGGGGYRGGNNSRGGGYGGSRGDNGYGGGRNRY”, “failed”; that for “EASSKSYRELIIEGLTALKERKGSSRPALKKFIKENYPIVGSASNFDLYFNNAIKKGVEAGDFEQPKGPAGAVKLAKK”, “not failed”.
The result for “MGIRHIALFRWNDTVTPDQVEQVITALSKLPAAIPELKNYAFGADLGLAAGNYDFAVVADLDGEDGFRAYQDHPDHRAALAIIAPMLADRVAVQFAL” reads “not failed”; that for “MAWNTNLRWRLPLTCLLLQVIMVILFGVFVRYDFEADAHWWSERTHKNLSDMENEFYYRYPSFQDVHVMVFVGFGFLMTFLQRYGFSAVGFNFLLAAFGIQWALLMQGWFHFLQDRYIVVGVENLINADFCVASVCVAFGAVLGKVSPIQLLIMTFFQVTLFAVNEFILLNLLKVKDAGGSMTIHTFGAYFGLTVTRILYRRNLEQSKERQNSVYQSDLFAMIGTLFLWMYWPSFNSAISYHGDSQHRAAINTYCSLAACVLTSVAISSALHKKGKLDMVHIQNATLAGGVAVGTAAEMMLMPYGALIIGFVCGIISTLGFVYLTPFLESRLHIQDTCGINNLHGIPGIIGGIVGAVTAASASLEVYGKEGLVHSFDFQGFNGDWTARTQGKFQIYGLLVTLAMALMGGIIVGLILRLPFWGQPSDENCFEDAVYWEMPEGNSTVYIPEDPTFKPSGPSVPSVPMVSPLPMASSVPLVP”, “not failed”.
Turning to “MSPTLSILIPVYKRDCRRLLEELYKQAEELSVGYEIILGDDCSGEPYTSQYIAYEQEGLCRLVSAEENMGAGRLRNRLAEEAQGEQLLILDSDTLPASPDFIERYLRHASGTTVVCGGFVYPPKSTNPLRQRYGAEVESRSAEERARKPHSGFISMAFMIPRKQMLATGFPPNMGMGYEDILFGERLRQAGIPILHIDNPVEHYHCDTAEGFLATTRSYLDNLYCHREELAELVSLLRAYNLLKRLHLEHHHHHH”, the protein production result was “failed”.
Consider “MSRPDDIDVRPIAEAETADWIRALNTGFLRSPEVSEREVADRSSYLVPARTLGAFDNGRCVATFRSFPQELTAVGGASVPADAISNVTVTATHRRRGLLTRMMAQDLAAAKERGDVVATLIAAEYPIYGRYGFGAATHSTEWTIDVPRTGLDPRWSGPGDGGRIDLVDGEDVRKAGPELHERLRRTQPGAVSRDERWWQVHTGVVRLDRSPWTEPFYAVYRSASGEVEGLVSYECDDHWGDAKQPQNTAKVNWLIATTPAAERALWHYLCSIDWITKVRTGWRAPDDLLPHFLPDPRAARVTTHADWLWVRILDVVRALEARTYDGSGTLVLDVVDRHGLAGGRYRLTVGPDGAVCEPTTRDAGLTLDVGELAALWLGDASAVRLAALGRVREQQEGAASVADALLRTSGRPWCPDMF”, for which the protein production result was “not failed”.
Regarding “MALEQTLKKDWYSILGADPSANMSDLKQKYQKLILLYHPDKQSADVPAGTMEECMQKFIEIDQAWKILGNEETKKKYDLQR”, the protein production entry is “not failed”.
Next, “MTIIKYIKFVVIIVIVTIVFSCSKNEAGNSEYDPSLPISLTDFFPIQGGMATRMVIEGANFGTDLSQIKVFFNQKEASILNVKNSIIYLLVPKLPGNDCIVTVKVGNQEARFTRNFQYIENYSVTTIAGQPGTNLFVEGTLAAAQFGPVQHLAIDDENNLFITERNGSDGKGTCSVLNEESGTVTFLFKASDNLNVPTVNAQTQNVYIPLDGGYTFYELNPVNQWIAKSRLVLHPSKEQQEAGMDDFEINWKHSLAFSRYDNMIYTRSYGGDLIKVDPETRVGQKIGNFFPNTDSFIVAHPTQPEILYIAYAAKHVIYTYNIETGEHKLFAGAFGQSGWNDGIATDAEFNSPRQMSLDMEGNIYIADSGNHCIRMIDKNGIVTTPIGQPGEAGYADGSPDMALLNDPRGVAVNSEGDVYIADLGNRCIRKLTLQLEHHHHHH”: “failed”.
The result for “MNSTISFLYQPKVQNGSIISVEALLRVPGVTNIESYVSMVTNKPLFDYTIIRKVLSDRREYHENIGYSFPVSINISIQSLESDYFINKTSKLLKNEPNVTLEITENDSYLSLERVKESMGILKSLGVKFSLDDFGKGFSDIEQVLSLDLDEIKVDGSLVNDIENNFYKFRHLKYTLDELEDISNFNIVIERVENKKQVNLIESLGKKVSYQGYFFYKPMNLFDLTIATPEPHKEEKHEPKLLLEKLIYELIKTDNDNECAQLVNDIHSVDIFNNLGSKVCDSLTITEVKKSILKKYNKIALNPNSPENLFFKSYLNCMSRLVIIRDSEGNALFNNQAHINFMNVDLVGMPLESIYEKFEQYESCIAIDKELIESKSNFLAVREVVDFDGQTKSYYTFRQKINHYGKTLIITIVYDEDDRDSFPRDALTDCFDRTILNSYYMNQFNMVAFIDMDGFKKINDNFSHKLGDDCLSKFVMYLKHELRKEDLIIRYGGDEFLIFTQWDDRHTFESRLNLIRNKVEKLFKSNNIDLSFSYGIEDLSKGMEIAINCADEKMYADKSRKLQ” reads “failed”; that for “MRSYRAQGPLPGFYHYYPGVPAVVGVRVEERVNFCPAVWNTGLSADPPLFGVSISPKRFTHGLLLKARRFSASFHPFGQKDLVHWLGSHSGREVDKGQAPHFLGHTGVPILEGAYAAYELELLEVHTFGDHDLFVGRVVAVWEEEGLLDEKGRPKPGLALLYYGKGLYGRPAEETFAP”, “not failed”.
The result for “MLLLHWDNMGKIELHHVFVMLSCIYLIFSDISINSAVVFLFSSIFFYISFTAGKRLYYLIGIDKENLKINLKKHYNFGIFLMIVGLIAVTSDLIWVKDVPLFNPLSRKFLNVYFTTLSHLFLVGWAIVVASSNIDKKKILLYTIIFSILIMLLGYRTNVLVLLISVGAILYYKNKISNREILKYGILVFVILLGLSILRLYALGVEGNPITSRISLTMSIYDIIFNNFNGVFNGYIHYSAVFSYLGLCNGARTVIAKTLGIYNVSITPTIVGAVIGDYGTLAIIPYFGILGIFLGFFYKLAKDVKGIYLGIYGILFAYTLIGIESGILDIDVILYYFFGLILCIYAILLRKLKR” reads “failed”; that for “MRKKQKLPFDKLAIALMSTSILLNAQSDIKANTVTEDTPAAEQAVETPQPTAVSEEVPSSKETKTPQTPDNAEETVADKANDLALQAPAKTADTPATSKATIRDLNDPSQVKTLQEKAGKGAGTVVAVIDAGFDKNHEAWRLTDKTKARYQSKEDLEKAKKEHGITYGEWVNDKVAYYHDYSKDGKTAVDQEHGTHVSGILSGNAPSETKEPYRLEGAMPEAQLLLMRVEIVNGLADYARNYAQAIRDAVNLGAKVINMSFGNAALAYANLPDETKKAFDYAKSKGVSIVTSAGNDSSFGGKTRLPLADHPDYGVVGTPAAADSTLTVASYSPDKQLTETATVKTADQQDKEMPVLSTNRFEPNKAYDYAYANRGMKEDDFKDVKGKIALIERGDIDFKDKIANAKKAGAVGVLIYDNQDKGFPIELPNVDQMPAAFISRKDGLLLKENPQKTITFNATPKVLPTASGTKLSRFSSWGLTADGNIKPDIAAPGQDILSSVANNKYAKLSGTSMSAPLVAGIMGLLQKQYEIQYPDMTPSERLDLAKKVLMSSATALYDEDEKAYFSPRQQGAGAVDAKKASAATMYVTDKDNTSSKVHLNNVSDKFEVTVTVHNKSDKPQELYYQATVQTDKVDGKHFALAPKALYETSWQKITIPANSSKQVTVPIDASRFSKDLLAQMKNGYFLEGFVRFKQDPKKEELMSIPYIGFRGDFGNLSALEKPIYDSKDGSSYYHEANSDAKDQLDGDGLQFYALKNNFTALTTESNPWTIIKAVKEGVENIEDIESSEITETIFAGTFAKQDDDSHYYIHRHANGKPYAAISPNGDGNRDYVQFQGTFLRNAKNLVAEVLDKEGNVVWTSEVTEQVVKNYNNDLASTLGSTRFEKTRWDGKDKDGKVVANGTYTYRVRYTPISSGAKEQHTDFDVIVDNTTLEVATSATFSTEDRRLTLASKPKTSQPIYRERIAYTYMDEDLPTTEYISPNEDGTFTLPEEAETMEGATVPLKMSDFTYVVEDMAGNITYTPVTKLLEGHSNKPEQDGSDQAPDKKPEAKPEQDGSGQTPDKKPETKPEKDSSGQTPGKTPQKGQPSRTLEKRSSKRALATKASARDQLPTTNDKDTNRLHLLKLVMTTFFFGLVAHIFKTKRQKETKK”, “failed”.
Regarding “MASSPRPTEQTKQFFQQWQTYQQLVDHNYMAHRQIHQAVGALIQQQFDRPFDFLDLGCGDAQAIAKTLTGSKINSYTGVDLSPNALALAQKNLDPFRQVELRETDFLTYLGEANQTAPASFDLIHVGFSLHHLLPEEKEQFFAHCFSLLRPGGCLVIYDVFRQPEQNRQQYIEAYLAKAESQWTALAPDQLQAIAAHIKECDFPELVATMAEIGQKVGFIPPQVLFTEPRGFHHCFAFAISQSGKALAQDGV”, the protein production entry was “failed”.
For “MNNKTKGIILITISALSFALMSTFVKLSGDLPSIEKSFFRNLVSCFVAFYLVKKDNALLFGHKENRLALIGRSALGTLGIWANYYAIDRLILSDATILNKLSPFFVIIFSYLFLKEKLKPIHIICLLAAFSGVLFIVRPSGNLASNFIPAIIGLCSAAFAGGAYTFVRYLGGKEKGATIVFFFSFFSIVTTFPIMLFQFETFSLEQFVFLILAGVAASCAQFALTAAYKYAPARDISIYDYTQVIFTALIGFVLFGDIPDKISLIGYVLILLASFSIFLYNKKEASK”, the protein production result is “not failed”.
Next, “MADNKVNLSINGQSKVPPGFRFHPTEEELLHYYLRKKVNSQKIDLDVIREVDLNKLEPWDIQEECRIGSTPQNDWYFFSHKDKKYPTGTRTNRATVAGFWKATGRDKIICSCVRRIGLRKTLVFYKGRAPHGQKSDWIMHEYRLDDTPMSNGYADVVTEDPMSYNEEGWVVCRVFRKKNYQKIDDCPKITLSSLPDDTEEEKGPTFHNTQNVTGLDHVLLYMDRTGSNICMPESQTTTQHQDDVLFMQLPSLETPKSESPVDQSFLTPSKLDFSPVQEKITERPVCSNWASLDRLVAWQLNNGHHNPCHRKSFDEEEENGDTMMQRWDLHWNNDDNVDLWSSFTESSSSLDPLLHLSV”: “failed”; “MDNGDWGYMMTDPVTLNVGGHLYTTSLTTLTRYPDSMLGAMFGGDFPTARDPQGNYFIDRDGPLFRYVLNFLRTSELTLPLDFKEFDLLRKEADFYQIEPLIQCLNDPKPLYPMDTFEEVVELSSTRKLSKYSNPVAVIITQLTITTKVHSLLEGISNYFTKWNKHMMDTRDCQVSFTFGPCDYHQEVSLRVHLMEYITKQGFTIRNTRVHHMSERANENTVEHNWTFCRLARKTDD”: “failed”.
